Reference: patent US20010029293A1

These binders were tested against CD18-independent counterreceptor for ICAM-R on Jurkat cells (assay: cell adhesion to coated shICAM-R, peptide 1-2 mg/ml).
Work on GERREA [ICAM-R peptide 271-276] yielded a % Inhibition CD18-Independent Binding (Jurkat) of 11%. Work on DGQST [ICAM-1 peptide 70-74 (DGQST)] yielded a % Inhibition CD18-Independent Binding (Jurkat) of 9%. In the case of GDQRL [ICAM-1 peptide 228-232 (GDQRL)], the % Inhibition CD18-Independent Binding (Jurkat) is reported as 22%. Binder EKIALET [ICAM-R peptide 32-38] has a % Inhibition CD18-Independent Binding (Jurkat) of 10%. In the case of NGSQI [ICAM-R peptide 72-76 (NGSQI)], the % Inhibition CD18-Independent Binding (Jurkat) is reported as 17%. For GDQML [ICAM-R peptide 230-234 (GDQML)], the % Inhibition CD18-Independent Binding (Jurkat) was 36%.
